Measurements: patent publication US7935785B2, “Selective substrates for matrix metalloproteinases” (Sanford-Burnham Medical Research Institute, priority 2001, dated 2011)

B1: Eph B2 fusion protein: extracellular domain of mouse EphB2 (residues 1-548) fused to Fc region of human IgG, R&D Systems (protein)
chain: VEETLMDSTTATAELGWMVHPPSGWEEVSGYDENMNTIRTYQVCNVFESSQNNWLRTKFIRRRGAHRIHVEMKFSVRDCSSIPSVPGSCKETFNLYYYEADFDLATKTFPNWMENPWVKVDTIAADESFSQVDLGGRVMKINTEVRSFGPVSRNGFYLAFQDYGGCMSLIAVRVFYRKCPRIIQNGAIFQETLSGAESTSLVAARGSCIANAEEVDVPIKLYCNGDGEWLVPIGRCMCKAGFEAVENGTVCRGCPSGTFKANQGDEACTHCPINSRTTSEGATNCVCRNGYYRADLDPLDMPCTTIPSAPQAVISSVNETSLMLEWTPPRDSGGREDLVYNIICKSCGSGRGACTRCGDNVQYAPRQLGLTEPRIYISDLLAHTQYTFEIQAVNGVTDQSPFSPQFASVNITTNQAAPSAVSIMHQVSRTVDSITLSWSQPDQPNGVILDYELQYYEKELSEYNATAIKSPTNTVTVQGLKAGAIYVFQVRARTVAGYGRYSGKMYFQTMTEAEYQTSIKEKLPLIVGSS
modifications: left off: small tags and cut ends; a dimerising Fc or GST
notes: extracellular domain of mouse EphB2 (residues 1-548) fused to Fc region of human IgG, R&D Systems
B2: Eph B1-Fc fusion protein: extracellular domain of rat EphB1 (residues 1-538) fused to Fc region of human IgG, R&D Systems (protein)
chain: MEETLMDTRTATAELGWTANPASGWEEVSGYDENLNTIRTYQVCNVFEPNQNNWLLTTFINRRGAHRIYTEMRFTVRDCSSLPNVPGSCKETFNLYYYETDSVIATKKSAFWSEAPYLKVDTIAADESFSQVDFGGRLMKVNTEVRSFGPLTRNGFYLAFQDYGACMSLLSVRVFFKKCPSIVQNFAVFPETMTGAESTSLVIARGTCIPNAEEVDVPIKLYCNGDGEWMVPIGRCTCKAGYEPENSVACKACPAGTFKASQEAEGCSHCPSNSRSPSEASPICTCRTGYYRADFDPPEVACTSVPSGPRNVISIVNETSIILEWHPPRETGGRDDVTYNIICKKCRADRRSCSRCDDNVEFVPRQLGLTECRVSISSLWAHTPYTFDIQAINGVSSKSPFPPQHVSVNITTNQAAPSTVPIMHQVSATMRSITLSWPQPEQPNGIILDYEIRYYEKEHNEFNSSMARSQTNTARIDGLRPGMVYVVQVRARTVAGYGKFSGKMCFQTLTDDDYKSELREQ
modifications: left off: small tags and cut ends; a dimerising Fc or GST
notes: extracellular domain of rat EphB1 (residues 1-538) fused to Fc region of human IgG, R&D Systems

How the values were obtained:
[1] = target: T1, MMP-2 (Homo sapiens, UniProt P08253); test: Cleavage of recombinant Eph receptor-Fc fusion proteins, SDS-PAGE; type: biochemical; conditions: 1.8 μM fusion protein, 280 nM MMP-2, 4 hours, 37° C.
T1 construct: the cDNA encoding the catalytic domain of MMP-2 was generated by PCR; made in house; host or cells: HEK 293 cells
Method: (§1) Recombinant fusion proteins between EphB1, EphB2 and the Fc domain of IgG were purchased from R&D Systems Inc. In these constructs, the extracellular domain of rat EphB1 (amino acid residues 1-538) and mouse EphB2 (amino acid residues 1-548) are fused to the Fc region of human IgG via a short polypeptide linker. The fusion proteins (1.8 μM) were incubated for 4 hours at 37° C. with 280 nM of either MMP-2 or MMP-9. Following incubation, samples were resolved by 10% SDS-PAGE, and samples were visualized by Coomassie staining. The N-terminus of the cleaved Eph B1 was determined by automated Edman degradation of protein blotted to PVDF membranes.
(§2) The Eph B1 and Eph B2 fusion proteins were incubated with equimolar amounts (280 nM) of MMP-2 and MMP-9 for four hours. The extent of hydrolysis was gauged by SDS-PAGE (FIG. 3). […] The extent of cleavage by MMP-9 was far lower (lane 3). […] The site of hydrolysis within Eph B1 was determined by sequencing the N-terminus of one of the released fragments. […] This is one of the predicted cleavage sites in EphB1. These findings illustrate that motifs found to be selective for MMP-2 by substrate phage display, can act as selective substrates within the context of whole proteins. This experiment also illustrates that the three dimensional conformation of the putative cleavage site will also control the extent of hydrolysis.

[2] = target: T2, MMP-9 (Homo sapiens, UniProt P14780); test: as above; type: biochemical; conditions: 1.8 μM fusion protein, 280 nM MMP-9, 4 hours, 37° C.
T2 construct: a recombinant form of the catalytic domain of MMP-9 expressed in HEK 293 cells; made in house; host or cells: HEK 293 cells
Method: as §1, §2

T2 sequence (P14780 94-444 limits assumed): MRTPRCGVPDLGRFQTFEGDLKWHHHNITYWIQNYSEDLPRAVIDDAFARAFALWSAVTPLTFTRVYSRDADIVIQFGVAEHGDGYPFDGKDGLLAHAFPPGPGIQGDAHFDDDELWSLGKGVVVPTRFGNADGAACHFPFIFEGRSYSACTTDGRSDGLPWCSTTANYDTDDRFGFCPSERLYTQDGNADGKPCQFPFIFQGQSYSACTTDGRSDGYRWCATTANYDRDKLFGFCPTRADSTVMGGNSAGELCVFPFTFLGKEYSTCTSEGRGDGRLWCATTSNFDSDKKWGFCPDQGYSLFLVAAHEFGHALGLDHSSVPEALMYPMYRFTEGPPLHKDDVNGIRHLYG
T1 sequence (P08253 110-465 limits assumed): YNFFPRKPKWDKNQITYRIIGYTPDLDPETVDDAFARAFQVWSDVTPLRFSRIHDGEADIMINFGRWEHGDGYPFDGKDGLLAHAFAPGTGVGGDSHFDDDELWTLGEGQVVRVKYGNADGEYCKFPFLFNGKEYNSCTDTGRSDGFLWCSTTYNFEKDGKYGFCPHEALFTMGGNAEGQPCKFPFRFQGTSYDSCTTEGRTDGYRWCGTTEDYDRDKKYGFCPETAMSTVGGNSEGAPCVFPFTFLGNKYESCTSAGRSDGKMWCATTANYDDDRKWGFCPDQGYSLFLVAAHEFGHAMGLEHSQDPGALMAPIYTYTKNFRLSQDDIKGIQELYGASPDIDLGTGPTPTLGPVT

| Molecule | extent of hydrolysis by MMP-2 (SDS-PAGE) [1] | extent of hydrolysis by MMP-9 (SDS-PAGE) [2] |
| --- | --- | --- |
| B1 | Neither protease cleaved | Neither protease cleaved |
| B2 | almost quantitatively cleaved | far lower |
